Experimental data taken from paper PMC3458543.

Biological target: T1, His-Six1-HD (Mus musculus, UniProt Q62231 110-201)
T1 sequence: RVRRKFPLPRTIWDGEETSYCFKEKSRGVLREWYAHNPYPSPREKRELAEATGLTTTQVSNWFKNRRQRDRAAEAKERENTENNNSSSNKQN
Assay: EMSA

B1: Myog_mut34 (dsDNA)
DNA 1: GTTAGAGGGGGTATCAGGTTTGTGTGGCGTTGGC
DNA 2: GCCAACGCCACACAAACCTGATACCCCCTCTAAC
binding result: binds
